“And” between values parts separate entries of the source, which are not always exact repeats. Identical values can stand only once.
Test system: plasma proteins
Experiment: Plasma proteins modulated between baseline and day 28 in responders (CR, VGPR, PR; n = 19), Example 6 (Table 13)
Assay type: in vivo, human
Settings: plasma protein (OLINK NPX); responders (CR, VGPR, PR; n = 19); itacitinib 200 mg or 300 mg QD with corticosteroids; day 28 vs baseline
Procedure, shortened: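 Plasma at baseline/screening and day 28 profiled for >1000 proteins by OLINK proximity extension assay, reported as NPX (log2). Steroid-naive and steroid-refractory patients pooled. Paired and unpaired t tests, ANOVA and Pearson correlation applied; significance at P<0.05.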

| Molecule | Fold Change, Decreased Expression from Baseline to Day 28 | Fold Change, Increased Expression from Baseline to Day 28 |
| --- | --- | --- |
| ICAM1 (protein, UniProt P05362 28-532, looked up) Intercellular adhesion …: QTSVSPSKVILPRGGSVLVTCSTSCDQPKLLGIETPLPKKELLLPGNNRKVYELSNVQEDSQPMCYSNCPDGQSTAKTFLTVYWTPERVELAPLPSWQPVGKNLTLRCQVEGGAPRANLTVVLLRGEKELKREPAVGEPAEVTTTVLVRRDHHGANFSCRTELDLRPQGLELFENTSAPYQLQTFVLPATPPQLVSPRVLEVDTQGTVVCSLDGLFPVSEAQVHLALGDQRLNPTVTYGNDSFSAKASVSVTAEDEGTQRLTCAVILGNQSQETLQTVTIYSFPAPNVILTKPEVSEGTEVTVKCEAHPRAKVTLNGVPAQPLGPRAQLLLKATPEDNGRSFSCSATLEVAGQLIHKNQTRELRVLYGPRLDERDCPGNWTWPENSQQTPMCQAWGNPLPELKCLKDGTFPLPIGESVTVTRDLEGTYLCRARSTQGEVTRKVTVNVLSPRYEIVIITVVAAAVIMGTAGLSTYLYNRQRKIKKYRLQQAQKGTPMKPNTQATPP | −1.354 |  |
| PRKCQ (protein, UniProt Q04759 1-706, looked up) Protein kinase C theta type: MSPFLRIGLSNFDCGSCQSCQGEAVNPYCAVLVKEYVESENGQMYIQKKPTMYPPWDSTFDAHINKGRVMQIIVKGKNVDLISETTVELYSLAERCRKNNGKTEIWLELKPQGRMLMNARYFLEMSDTKDMNEFETEGFFALHQRRGAIKQAKVHHVKCHEFTATFFPQPTFCSVCHEFVWGLNKQGYQCRQCNAAIHKKCIDKVIAKCTGSAINSRETMFHKERFKIDMPHRFKVYNYKSPTFCEHCGTLLWGLARQGLKCDACGMNVHHRCQTKVANLCGINQKLMAEALAMIESTQQARCLRDTEQIFREGPVEIGLPCSIKNEARPPCLPTPGKREPQGISWESPLDEVDKMCHLPEPELNKERPSLQIKLKIEDFILHKMLGKGSFGKVFLAEFKKTNQFFAIKALKKDVVLMDDDVECTMVEKRVLSLAWEHPFLTHMFCTFQTKENLFFVMEYLNGGDLMYHIQSCHKFDLSRATFYAAEIILGLQFLHSKGIVYRDLKLDNILLDKDGHIKIADFGMCKENMLGDAKTNTFCGTPDYIAPEILLGQKYNHSVDWWSFGVLLYEMLIGQSPFHGQDEEELFHSIRMDNPFYPRWLEKEAKDLLVKLFVREPEKRLGVRGDIRQHPLFREINWEELERKEIDPPFRPKVKSPFDCSNFDKEFLNEKPRLSFADRALINSMDQNMFRNFSFMNPGMERLIS | −1.3251 |  |
| KIM1 (protein, UniProt Q96D42 21-364, looked up) Hepatitis A virus cellular …: SVKVGGEAGPSVTLPCHYSGAVTSMCWNRGSCSLFTCQNGIVWTNGTHVTYRKDTRYKLLGDLSRRDVSLTIENTAVSDSGVYCCRVEHRGWFNDMKITVSLEIVPPKVTTTPIVTTVPTVTTVRTSTTVPTTTTVPMTTVPTTTVPTTMSIPTTTTVLTTMTVSTTTSVPTTTSIPTTTSVPVTTTVSTFVPPMPLPRQNHEPVATSPSSPQPAETHPTTLQGAIRREPTSSPLYSYTTDGNDTVTESSDGLWNNNQTQLFLEHSLLTANTTKGIYAGVCISVLVLLALLGVIIAKKYFFKKEVQQLSVSFSSLQIKALQNAVEKEVQAEDNIYIENSLYATD |  | 1.7741 and 1.757 |
| TNFRSF6B (protein, UniProt O95407 30-300, looked up) Tumor necrosis factor …: VAETPTYPWRDAETGERLVCAQCPPGTFVQRPCRRDSPTTCGPCPPRHYTQFWNYLERCRYCNVLCGEREEEARACHATHNRACRCRTGFFAHAGFCLEHASCPPGAGVIAPGTPSQNTQCQPCPPGTFSASSSSSEQCQPHRNCTALGLALNVPGSSSHDTLCTSCTGFPLSTRVPGAEECERAVIDFVAFQDISIKRLQRLLQALEAPEGWGPTPRAGRAALQLKLRRRLTELLGAQDGALLVRLLQALRVARMPGLERSVRERFLPVH | −1.3504 |  |
| CLEC1A (protein, UniProt Q8NC01 1-280, looked up) C-type lectin domain family 1 …: MQAKYSSTRDMLDDDGDTTMSLHSQGSATTRHPEPRRTEHRAPSSTWRPVALTLLTLCLVLLIGLAALGLLFFQYYQLSNTGQDTISQMEERLGNTSQELQSLQVQNIKLAGSLQHVAEKLCRELYNKAGAHRCSPCTEQWKWHGDNCYQFYKDSKSWEDCKYFCLSENSTMLKINKQEDLEFAASQSYSEFFYSYWTGLLRPDSGKAWLWMDGTPFTSELFHIIIDVTSPRSRDCVAILNGMIFSKDCKELKRCVCERRAGMVKPESLHVPPETLGEGD | −1.2841 |  |
| TNFRSF14 (protein, UniProt Q92956 39-283, looked up) Tumor necrosis factor …: LPSCKEDEYPVGSECCPKCSPGYRVKEACGELTGTVCEPCPPGTYIAHLNGLSKCLQCQMCDPAMGLRASRNCSRTENAVCGCSPGHFCIVQDGDHCAACRAYATSSPGQRVQKGGTESQDTLCQNCPPGTFSPNGTLEECQHQTKCSWLVTKAGAGTSSSHWVWWFLSGSLVIVIVCSTVGLIICVKRRKPRGDVVKVIVSVQRKRQEAEGEATVIEALQAPPDVTTVAVEETIPSFTGRSPNH | −1.2658 |  |
| ZBTB17 (protein, UniProt Q13105 1-803, looked up) Zinc finger and BTB …: MDFPQHSQHVLEQLNQQRQLGLLCDCTFVVDGVHFKAHKAVLAACSEYFKMLFVDQKDVVHLDISNAAGLGQVLEFMYTAKLSLSPENVDDVLAVATFLQMQDIITACHALKSLAEPATSPGGNAEALATEGGDKRAKEEKVATSTLSRLEQAGRSTPIGPSRDLKEERGGQAQSAASGAEQTEKADAPREPPPVELKPDPTSGMAAAEAEAALSESSEQEMEVEPARKGEEEQKEQEEQEEEGAGPAEVKEEGSQLENGEAPEENENEESAGTDSGQELGSEARGLRSGTYGDRTESKAYGSVIHKCEDCGKEFTHTGNFKRHIRIHTGEKPFSCRECSKAFSDPAACKAHEKTHSPLKPYGCEECGKSYRLISLLNLHKKRHSGEARYRCEDCGKLFTTSGNLKRHQLVHSGEKPYQCDYCGRSFSDPTSKMRHLETHDTDKEHKCPHCDKKFNQVGNLKAHLKIHIADGPLKCRECGKQFTTSGNLKRHLRIHSGEKPYVCIHCQRQFADPGALQRHVRIHTGEKPCQCVMCGKAFTQASSLIAHVRQHTGEKPYVCERCGKRFVQSSQLANHIRHHDNIRPHKCSVCSKAFVNVGDLSKHIIIHTGEKPYLCDKCGRGFNRVDNLRSHVKTVHQGKAGIKILEPEEGSEVSVVTVDDMVTLATEALAATAVTQLTVVPVGAAVTADETEVLKAEISKAVKQVQEEDPNTHILYACDSCGDKFLDANSLAQHVRIHTAQALVMFQTDADFYQQYGPGGTWPAGQVLQAGELVFRPRDGAEGQPALAETSPTAPECPPPAE | −1.2333 |  |
| Flt3L (protein, UniProt P49771 27-235, looked up) Fms-related tyrosine kinase 3 …: TQDCSFQHSPISSDFAVKIRELSDYLLQDYPVTVASNLQDEELCGGLWRLVLAQRWMERLKTVAGSKMQGLLERVNTEIHFVTKCAFQPPPSCLRFVQTNISRLLQETSEQLVALKPWITRQNFSRCLELQCQPDSSTLPPPWSPRPLEATAPTAPQPPLLLLLLLPVGLLLLAAAWCLHWQRTRRRTPRPGEQVPPVPSPQDLLLVEH |  | 2.3423 |
| BANK1 (protein, UniProt Q8NDB2 1-785, looked up) B-cell scaffold protein with …: MLPAAPGKGLGSPDPAPCGPAPPGNTKDIIMIYEEDAEEWALYLTEVFLHVVKREAILLYRLENFSFRHLELLNLTSYKCKLLILSNSLLRDLTPKKCQFLEKILHSPKSVVTLLCGVKSSDQLYELLNISQSRWEISTEQEPEDYISVIQSIIFKDSEDYFEVNIPTDLRAKHSGEISERKEIEELSEASRNTIPLAVVLPTEIPCENPGEIFIILRDEVIGDTVEVEFTSSNKRIRTRPALWNKKVWCMKALEFPAGSVHVNVYCDGIVKATTKIKYYPTAKAKECLFRMADSGESLCQNSIEELDGVLTSIFKHEIPYYEFQSLQTEICSQNKYTHFKELPTLLHCAAKFGLKNLAIHLLQCSGATWASKMKNMEGSDPAHIAERHGHKELKKIFEDFSIQEIDINNEQENDYEEDIASFSTYIPSTQNPAFHHESRKTYGQSADGAEANEMEGEGKQNGSGMETKHSPLEVGSESSEDQYDDLYVFIPGADPENNSQEPLMSSRPPLPPPRPVANAFQLERPHFTLPGTMVEGQMERSQNWGHPGVRQETGDEPKGEKEKKEEEKEQEEEEDPYTFAEIDDSEYDMILANLSIKKKTGSRSFIINRPPAPTPRPTSIPPKEETTPYIAQVFQQKTARRQSDDDKFCGLPKKQDRARIESPAFSTLRGCLTDGQEELILLQEKVKNGKMSMDEALEKFKHWQMGKSGLEMIQQEKLRQLRDCIIGKRPEEENVYNKLTIVHHPGGKETAHNENKFYNVHFSNKLPARPQVEKEFGFCCKKDH | −2.0084 |  |
| NADK (protein, UniProt O95544 1-446, looked up) NAD kinase: MEMEQEKMTMNKELSPDAAAYCCSACHGDETWSYNHPIRGRAKSRSLSASPALGSTKEFRRTRSLHGPCPVTTFGPKACVLQNPQTIMHIQDPASQRLTWNKSPKSVLVIKKMRDASLLQPFKELCTHLMEENMIVYVEKKVLEDPAIASDESFGAVKKKFCTFREDYDDISNQIDFIICLGGDGTLLYASSLFQGSVPPVMAFHLGSLGFLTPFSFENFQSQVTQVIEGNAAVVLRSRLKVRVVKELRGKKTAVHNGLGENGSQAAGLDMDVGKQAMQYQVLNEVVIDRGPSSYLSNVDVYLDGHLITTVQGDGVIVSTPTGSTAYAAAAGASMIHPNVPAIMITPICPHSLSFRPIVVPAGVELKIMLSPEARNTAWVSFDGRKRQEIRHGDSISITTSCYPLPSICVRDPVSDWFESLAQCLHWNVRKKQAHFEEEEEEEEEG | −1.3493 |  |
| AMIGO2 (protein, UniProt Q86SJ2 40-522, looked up) Amphoterin-induced protein 2: VCPTACICATDIVSCTNKNLSKVPGNLFRLIKRLDLSYNRIGLLDSEWIPVSFAKLNTLILRHNNITSISTGSFSTTPNLKCLDLSSNKLKTVKNAVFQELKVLEVLLLYNNHISYLDPSAFGGLSQLQKLYLSGNFLTQFPMDLYVGRFKLAELMFLDVSYNRIPSMPMHHINLVPGKQLRGIYLHGNPFVCDCSLYSLLVFWYRRHFSSVMDFKNDYTCRLWSDSRHSRQVLLLQDSFMNCSDSIINGSFRALGFIHEAQVGERLMVHCDSKTGNANTDFIWVGPDNRLLEPDKEMENFYVFHNGSLVIESPRFEDAGVYSCIAMNKQRLLNETVDVTINVSNFTVSRSHAHEAFNTAFTTLAACVASIVLVLLYLYLTPCPCKCKTKRQKNMLHQSNAHSSILSPGPASDASADERKAGAGKRVVFLEPLKDTAAGQNGKVRLFPSEAVIAEGILKSTRGKSDSDSVNSVFSDTPFVAST | −1.1962 |  |
